Residue numbers refer to the chain shown, from its start. Where “and” joins values, the source holds several entries; their conditions need not be identical. Equal entries are not always repeated.
T1: CLL-1 (CLEC12A) on CLL-1 positive cell lines (U937, OCI-AML-5) (human, UniProt Q5QGZ9 1-265)
T1 construct: whole, on cells; also called MICL
T1 sequence: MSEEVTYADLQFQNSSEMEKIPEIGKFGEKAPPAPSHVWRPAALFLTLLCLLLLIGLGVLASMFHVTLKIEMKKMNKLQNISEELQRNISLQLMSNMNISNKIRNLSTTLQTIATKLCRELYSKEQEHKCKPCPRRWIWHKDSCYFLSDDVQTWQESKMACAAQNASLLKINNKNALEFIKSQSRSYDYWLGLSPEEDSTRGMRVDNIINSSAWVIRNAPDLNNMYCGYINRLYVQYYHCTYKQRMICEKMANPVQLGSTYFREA

T2: full-length CLEC12A, amino acid 254 K version, on transfected HEK-293T cells (Homo sapiens (Human), UniProt Q5QGZ9 1-265)
T2 construct: GenScript cDNA, UniProt Q5QGZ9-1 as printed; also called K form; K version of CLEC12A
T2 sequence: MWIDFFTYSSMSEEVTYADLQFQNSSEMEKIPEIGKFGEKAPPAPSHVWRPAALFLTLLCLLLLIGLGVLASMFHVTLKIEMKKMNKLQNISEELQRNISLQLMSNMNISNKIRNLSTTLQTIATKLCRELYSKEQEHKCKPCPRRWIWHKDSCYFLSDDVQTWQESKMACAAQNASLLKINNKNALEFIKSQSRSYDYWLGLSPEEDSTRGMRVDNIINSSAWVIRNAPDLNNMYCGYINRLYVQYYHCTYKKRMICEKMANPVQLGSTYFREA

T3: full-length CLEC12A, version with Q at amino acid 254, on transfected HEK-293T cells (Homo sapiens (Human), UniProt Q5QGZ9 1-265)
T3 construct: Generated by mutagenesis of the K version; also called Q form
T3 sequence: T2 sequence with K254Q

T4: CLEC12A (Homo sapiens, UniProt Q5QGZ9)
T4 construct: literature AbClonal (protein); Genscript (cDNA)
T4 sequence (Q5QGZ9 1-275 isoform Q5QGZ9-1): T2 sequence

B1: anti-CLL-1 VHH(2H3)-CD19 variant (construct #330) (other)
chain: QVQLQESGGGLVQAGGSLRLSCVASGSIRSINVMGWYRQAPGKQRELVAACASDGNTYYADSVKGRFTISRDNAEKTVYLQMNNLKPDDTAVYYCDANSRGNYYSGQGTQVTVSSTSGPGGQGAGGGGSGGGGSGGGGSGGGGSPEEPLVVKVEEGDTAALWCLKGTSDGPTQQLTWSRESPLKPFLKYSLGVPGLGVHVRPDAISVVIRNVSQQMGGFYLCQPGPPSEKAWQPGWTVNVEGSGELFRWNVSDLGGLGCGLKNRSSEGPSSPSGKLMSPKLYVWAKDRPEIWEGEPPCLPPRDSLNQSLSRDLTVAPGSTLWLSCGVPPDSVSRGPLSWTHVHPKGPKSLLSLELKDDRPARDMWVMGTSLMLPRATAQDAGKWYCHRGNLTMSFHLEITARPSRHHHHHH
notes: Fusion of anti-CLL-1 VHH 2H3, linker, CD19 variant extracellular domain and His tag; also called fusion protein #330; single VHH #330 fusion protein
B2: VHH clone 2H3: anti-CLL-1/CLEC12A VHH (protein)
VHH: QVQLQESGGGLVQAGGSLRLSCVASGSIRSINVMGWYRQAPGKQRELVAACASDGNTYYADSVKGRFTISRDNAEKTVYLQMNNLKPDDTAVYYCDANSRGNYYSGQGTQVTVSS

Key:
biotinylated CD33 = biotinylated CD33 (UniProt P20138 18-259, biotinylated (site not stated)); experiment: ELISA: fusion protein captured on FMC63, biotinylated CD33 at 0.5 µg/ml, HRP-SA
[1] = molecular target: T1, CLL-1 (CLEC12A) on CLL-1 positive cell …; experiment: flow cytometry on CLL-1 positive U937 cells, FMC63-PE detection
[2] = molecular target: T1, CLL-1 (CLEC12A) on CLL-1 positive cell …; experiment: flow cytometry on CLL-1 positive U937 cells, expressed fusion protein, detection with FMC63-PE, % Binding
[3] = molecular target: T2, full-length CLEC12A, amino acid 254 K …; experiment: flow cytometry on transfected HEK-293T cells, HIB19-PE detection
[4] = molecular target: T1, CLL-1 (CLEC12A) on CLL-1 positive cell …; experiment: flow cytometry on U937 cells (cell line per paragraph 272), purified fusion protein, detection with FMC63-PE, % Binding
[5] = molecular target: T1, CLL-1 (CLEC12A) on CLL-1 positive cell …; experiment: flow cytometry on U937 cells, purified fusion protein, a-His-PE detection, % Binding
[6] = molecular target: CLEC12A as named in the ELISA column of Table 8 (UniProt Q5QGZ9); experiment: ELISA (protocol as printed: FMC63 coat, fusion protein titrated, HRP anti-His)
[7] = molecular target: T1, CLL-1 (CLEC12A) on CLL-1 positive cell …; experiment: cell-based or functional assay
[8] = molecular target: T3, full-length CLEC12A, version with Q at …; experiment: flow cytometry on HEK-293T cells transfected with CLEC12A 'Q' version, purified fusion protein, detection with HIB19-PE, % Binding
CLEC12A = molecular target: T4, CLEC12A; details: CLEC12A from AbClonal or cDNA from Genscript; previous studies; cited from earlier work

Molecule | binding result (biotinylated CD33) | EC50 [1] | EC50 [2] | fold weaker binding than to the Q form [3] | EC50 [4] | EC50 [5] | EC50 [6] | CLEC12A-cell cytotoxicity (IC50 n = 2-3) [7] | EC50 [8] | binding to CLEC12A containing a Lysine residue at amino acid 254 (CLEC12A)
B1 | no binding | 1 nM | 0.0449 µg/mL | > 10000 fold | 0.00406 µg/mL and 0.0865 nM | 0.00114 µg/mL and 0.0261 nM | 0.013 nM | 0.0078 nM | 0.0048 nM and 0.00021 µg/mL | 
B2 |  |  |  |  |  |  |  |  |  | did not bind

— US20220387487A1, “COMPOSITIONS AND METHODS FOR TREATMENT OF CANCER” (Aleta Biotherapeutics Inc., priority 2019, published 2022)
